In assay [1] the target is feline FcRn complex (FcRn-α subunit and β-microglobulin) (feline). Nature of the assay: SPR (Biacore), FcRn on SA chip, pH 6. On the technique in general: Surface plasmon resonance follows binding to a sensor surface in real time, without labels.
Assay [2] has the same target. Nature of the assay: SPR (Biacore), FcRn on SA chip, pH 7.4.

Substitutions are numbered along the chain they refer to. Numbers in names are those of the source.

The text below walks through data of patent publication US20240400708A1.

In general, Kd refers to the constant that tells how readily two partners part at equilibrium.

B1: feline IgG1a mutant ID No. 301: S428Y, Q311W, L314K, S434Y (antibody, part only; not given: Variable domains, not shown: another chain or arm of the molecule)
constant: ASTTAPSVFPLAPSCGTTSGATVALACLVLGYFPEPVTVSWNSGALTSGVHTFPAVLQASGLYSLSSMVTVPSSRWLSDTFTCNVAHPPSNTKVDKTVRKTDHPPGPKPCDCPKCPPPEMLGGPSIFIFPPKPKDTLSISRTPEVTCLVVDLGPDDSDVQITWFVDNTQVYTAKTSPREEQFNSTYRVVSVLPILHWDWKKGKEFKCKVNSKSLPSPIERTISKAKGQPHEPQVYVLPPAQEELSRNKVSVTCLIKSFHPPDIAVEWEITGQPEPENNYRTTPPQLDSDGTYFVYSKLSVDRSHWQRGNTYTCSVYHEALHYHHTQKSLTQSPGK
As to B1, the results for the dissociation constant (Kd) in assay [1] and in assay [2] were 1.11 nM and 494 nM, respectively.

B2: feline IgG1a mutant ID No. 325: S428Y, D312P, S434Y, D401R, T403R (antibody, part only; not given: Variable domains, not shown: another chain or arm of the molecule)
constant: B1 constant with W197Q, D198P, K200L, D289R, T291R
For the molecule B2, the values for the Kd in assay [1] and in assay [2] were 0.0072 nM and 11.1 nM, respectively.

B3: feline IgG1a mutant ID No. 303: A431K, S434Y (antibody, part only; not given: variable domains and light chain, not shown: another chain or arm of the molecule)
constant: B1 constant with W197Q, K200L, Y316S, A319K
B3: the values for the Kd in assay [1] and in assay [2] were 1.33 nM and 26.3 nM, respectively.

B4: feline IgG1a mutant ID No. 326: S428Y, D312P, S434Y, P247V, S252H (antibody, part only; not given: Variable domains, not shown: another chain or arm of the molecule; small tags and cut ends)
constant: B1 constant with P133V, S138H, W197Q, D198P, K200L
Regarding B4, the results for the Kd in assay [1] and in assay [2] were 0.0627 nM and 13.7 nM, respectively.

B5: feline IgG1a mutant ID No. 317: S428M, A431K, S434P (antibody, part only; not given: variable domains and light chain, not shown: another chain or arm of the molecule)
constant: B1 constant with W197Q, K200L, Y316M, A319K, Y322P
In the case of B5, the Kd in assay [1] came to 22.2 nM; in assay [2], 15.6 nM.

B6: feline IgG1a mutant ID No. 339: S252Y, S428M, S434F, P247L (antibody, part only; not given: Variable domains, not shown: another chain or arm of the molecule)
constant: B1 constant with P133L, S138Y, W197Q, K200L, Y316M, Y322F
As to B6, the Kd was 0.0168 nM in assay [1] and 6.73 nM in assay [2].

B7: feline IgG1a mutant ID No. 329: S428Y, D312P, S434Y, Q311H, L314K (antibody, part only; not given: Variable domains, not shown: another chain or arm of the molecule; small tags and cut ends)
constant: B1 constant with W197H, D198P
As for B7, the Kd is 0.338 nM in assay [1] and 18.9 nM in assay [2].

B8: feline IgG1a mutant ID No. 340: S252Y, S428M, S434F, Q311R (antibody, part only; not given: Variable domains, not shown: another chain or arm of the molecule)
constant: B1 constant with S138Y, W197R, K200L, Y316M, Y322F
Regarding B8, the Kd in assay [1] worked out at 0.025 nM; in assay [2] it was 3.3 nM.

B9: feline IgG1a mutant ID No. 308: P247V, S252H (antibody, part only; not given: Variable domains, not shown: another chain or arm of the molecule; small tags and cut ends)
constant: B1 constant with P133V, S138H, W197Q, K200L, Y316S, Y322S
As for B9, the Kd in assay [1] is 5.61 nM; in assay [2], 17.9 nM.

B10: feline IgG1a mutant ID No. 348: S252Y, S428M, S434F, Q311H (antibody, part only; not given: Variable domains, not shown: another chain or arm of the molecule)
constant: B1 constant with S138Y, W197H, K200L, Y316M, Y322F
B10: the figures for the Kd in assay [1] and in assay [2] were 0.00949 nM and 10.8 nM, respectively.

B11: feline IgG1a mutant ID No. 328: S428Y, D312P, S434Y, P247V, T250Q, S252H (antibody, part only; not given: Variable domains, not shown: another chain or arm of the molecule; small tags and cut ends)
constant: B1 constant with P133V, T136Q, S138H, W197Q, D198P, K200L
For the molecule B11, the Kd in assay [1] is 0.0418 nM; in assay [2], 8.68 nM.

B12: feline IgG1a mutant ID No. 318: S428M, A431K, S434Y (antibody, part only; not given: Variable domains, not shown: another chain or arm of the molecule)
constant: B1 constant with W197Q, K200L, Y316M, A319K
Turning to B12, the Kd in assay [1] stood at 0.135 nM; in assay [2], 25.3 nM.

B13: feline IgG1a mutant ID No. 331: S428Y, D312P, S434Y, Q311M, L314K (antibody, part only; not given: Variable domains, not shown: another chain or arm of the molecule; small tags and cut ends)
constant: B1 constant with W197M, D198P
On to B13, for which the Kd in assay [1] amounted to 0.259 nM; in assay [2], 14.6 nM.

B14: feline IgG1a mutant ID No. 310: P247V, T250Q, S252H (antibody, part only; not given: variable domains and light chain, not shown: another chain or arm of the molecule; small tags and cut ends)
constant: B1 constant with P133V, T136Q, S138H, W197Q, K200L, Y316S, Y322S
Regarding B14, the values for the Kd in assay [1] and in assay [2] were 8.21 nM and 24.4 nM, respectively.

B15: feline IgG1a mutant ID No. 343: S252Y, S428M, S434F, D399M (antibody, part only; not given: Variable domains, not shown: another chain or arm of the molecule; small tags and cut ends)
constant: B1 constant with S138Y, W197Q, K200L, D287M, Y316M, Y322F
Consider B15, for which the Kd was 0.041 nM in assay [1] and 10.9 nM in assay [2].

B16: feline IgG1a mutant ID No. 347: S252Y, S428M, S434F, L314K (antibody, part only; not given: variable domains and light chain, not shown: another chain or arm of the molecule)
constant: B1 constant with S138Y, W197Q, Y316M, Y322F
Consider B16, for which the Kd in assay [1] stood at 0.0567 nM; in assay [2], 10.5 nM.

B17: feline IgG1a mutant ID No. 346: S252Y, S428M, S434F, G402R (antibody, part only; not given: Variable domains, not shown: another chain or arm of the molecule)
constant: B1 constant with S138Y, W197Q, K200L, G290R, Y316M, Y322F
As for B17, the Kd in assay [1] came out at 0.0404 nM; in assay [2], 9.95 nM.

B18: feline IgG1a mutant ID No. 341: S252Y, S428M, S434F, D312A (antibody, part only; not given: Variable domains, not shown: another chain or arm of the molecule; small tags and cut ends)
constant: B1 constant with S138Y, W197Q, D198A, K200L, Y316M, Y322F
On to B18, for which the Kd in assay [1] was determined as 0.0353 nM; in assay [2], 6.5 nM.

B19: feline IgG1a mutant ID No. 332: S428Y, D312P, S434Y, Q311R, L314K (antibody, part only; not given: Variable domains, not shown: another chain or arm of the molecule; small tags and cut ends)
constant: B1 constant with W197R, D198P
Regarding B19, the Kd in assay [1] was 0.332 nM; in assay [2] it was 28.6 nM.

B20: feline IgG1a mutant ID No. 338: S252Y, S428M, S434F, D399T (antibody, part only; not given: variable domains and light chain, not shown: another chain or arm of the molecule)
constant: B1 constant with S138Y, W197Q, K200L, D287T, Y316M, Y322F
In the case of B20, the figures for the Kd in assay [1] and in assay [2] were 0.0272 nM and 13.8 nM, respectively.

B21: feline IgG1a mutant ID No. 324: S428Y, D312P, S434Y, D399M, T403R (antibody, part only; not given: Variable domains, not shown: another chain or arm of the molecule)
constant: B1 constant with W197Q, D198P, K200L, D287M, T291R
As for B21, the Kd in assay [1] is 0.113 nM; in assay [2] it was 21.6 nM.

B22: feline IgG1a mutant ID No. 333: S428Y, D312P, S434Y, Q311Y, L314K (antibody, part only; not given: Variable domains, not shown: another chain or arm of the molecule; small tags and cut ends)
constant: B1 constant with W197Y, D198P
Turning to B22, the Kd came out at 0.908 nM in assay [1] and 25.9 nM in assay [2].

B23: feline IgG1a mutant ID No. 345: S252Y, S428M, S434F, E430I (antibody, part only; not given: Variable domains, not shown: another chain or arm of the molecule)
constant: B1 constant with S138Y, W197Q, K200L, Y316M, E318I, Y322F
For B23, the Kd in assay [1] is 0.0227 nM; in assay [2] it was 11.5 nM.

B24: feline IgG1a mutant ID No. 321: S428Y, D312P, S434Y, A431K (antibody, part only; not given: Variable domains, not shown: another chain or arm of the molecule)
constant: B1 constant with W197Q, D198P, K200L, A319K
Consider B24, for which the Kd amounted to 0.0539 nM in assay [1] and 10.2 nM in assay [2].

B25: feline IgG1a mutant ID No. 335: T250Q, S252H (antibody, part only; not given: Variable domains, not shown: another chain or arm of the molecule)
constant: B1 constant with T136Q, S138H, W197Q, K200L, Y316S, Y322S
Consider B25, for which the results for the Kd in assay [1] and in assay [2] were 8.02 nM and 36.9 nM, respectively.

B26: feline IgG1a mutant ID No. 336: S252Y, S428M, S434F, A431K (antibody, part only; not given: Variable domains, not shown: another chain or arm of the molecule)
constant: B1 constant with S138Y, W197Q, K200L, Y316M, A319K, Y322F
For the molecule B26, the results for the Kd in assay [1] and in assay [2] were 0.0359 nM and 7.28 nM, respectively.

B27: feline IgG1a mutant ID No. 342: S252Y, S428M, S434F, D312P (antibody, part only; not given: Variable domains, not shown: another chain or arm of the molecule; small tags and cut ends)
constant: B1 constant with S138Y, W197Q, D198P, K200L, Y316M, Y322F
Consider B27, for which the Kd in assay [1] amounted to 0.0063 nM; in assay [2], 3.29 nM.

B28: feline IgG1a mutant ID No. 319: S428Y, D312P, A431K, S434P (antibody, part only; not given: variable domains, not shown: another chain or arm of the molecule)
constant: B1 constant with W197Q, D198P, K200L, A319K, Y322P
On to B28, for which the Kd in assay [1] was determined as 6.96 nM; in assay [2], 1080 nM.

B29: feline IgG1a mutant ID No. 327: S428Y, D312P, S434Y, P247V, T250Q (antibody, part only; not given: Variable domains, not shown: another chain or arm of the molecule; small tags and cut ends)
constant: B1 constant with P133V, T136Q, W197Q, D198P, K200L
Regarding B29, the Kd in assay [1] was 0.221 nM; in assay [2], 27.4 nM.

B30: feline IgG1a mutant ID No. 344: S252Y, S428M, S434F, D401R (antibody, part only; not given: Variable domains, not shown: another chain or arm of the molecule)
constant: B1 constant with S138Y, W197Q, K200L, D289R, Y316M, Y322F
On to B30, for which the Kd came out at 0.0128 nM in assay [1] and 11 nM in assay [2].

B31: feline IgG1a mutant ID No. 337: S252Y, S428M, S434F, D312H (antibody, part only; not given: Variable domains, not shown: another chain or arm of the molecule)
constant: B1 constant with S138Y, W197Q, D198H, K200L, Y316M, Y322F
Turning to B31, the Kd came to 0.0272 nM in assay [1] and 8.96 nM in assay [2].

B32: feline IgG1a mutant ID No. 334: S428Y, D312P, S434Y, T250Q, S252H (antibody, part only; not given: Variable domains, not shown: another chain or arm of the molecule)
constant: B1 constant with T136Q, S138H, W197Q, D198P, K200L
For the molecule B32, the Kd was 0.182 nM in assay [1] and 19.9 nM in assay [2].

B33: feline IgG1a mutant ID No. 316: S428M, A431K (antibody, part only; not given: Variable domains, not shown: another chain or arm of the molecule)
constant: B1 constant with W197Q, K200L, Y316M, A319K, Y322S
On to B33, for which the figures for the Kd in assay [1] and in assay [2] were 4.87 nM and 2420 nM, respectively.
